In patent US6383484:

B1: VEGF-DΔNΔC (human VEGF-D residues 93 to 201, FLAG-tagged at the N-terminus) (ligand)
chain: FYDIETLKVIDEEWQRTQCSPRETCVEVASELGKSTNTFFKPPCVNVFRCGGCCNEESLICMNTSTSYISKQLFEISVPLTSVPELVPVKVANHTGCKCLPTAPRHPYS
notes: also called VEGF-D?N?C; human VEGF-D?N?C; not shown: FLAG octapeptide (Sigma) at the N-terminus; any vector-de

How the values were obtained:
[1] = target: VEGF-DΔNΔC (human VEGF-D residues 93 to 201, FLAG-tagged at the N-terminus) (human) (UniProt O43915); assay: SPR (BIAcore 3000), antibody immobilized, human VEGF-DΔNΔC flowed at 41-689 nM, 1:1 Langmuir model
[2] = target: VEGF-DΔNΔC (human VEGF-D residues 93 to 201, FLAG-tagged at the N-terminus) (human) (UniProt O43915); assay: cell-based or functional assay
[3] = target: T1, chimeric protein consisting of the extracellular domain of human VEGFR-1 and the Fc portion of human IgG (human, UniProt P17948 27-758); assay: plate receptor-binding assay, VEGFR-1/Ig coated, detection with biotinylated M2
T1 construct: extracellular domain; also called VEGFR-1/Ig; not shown: Fc portion of human IgG
T1 sequence (P17948 27-758, change not shown): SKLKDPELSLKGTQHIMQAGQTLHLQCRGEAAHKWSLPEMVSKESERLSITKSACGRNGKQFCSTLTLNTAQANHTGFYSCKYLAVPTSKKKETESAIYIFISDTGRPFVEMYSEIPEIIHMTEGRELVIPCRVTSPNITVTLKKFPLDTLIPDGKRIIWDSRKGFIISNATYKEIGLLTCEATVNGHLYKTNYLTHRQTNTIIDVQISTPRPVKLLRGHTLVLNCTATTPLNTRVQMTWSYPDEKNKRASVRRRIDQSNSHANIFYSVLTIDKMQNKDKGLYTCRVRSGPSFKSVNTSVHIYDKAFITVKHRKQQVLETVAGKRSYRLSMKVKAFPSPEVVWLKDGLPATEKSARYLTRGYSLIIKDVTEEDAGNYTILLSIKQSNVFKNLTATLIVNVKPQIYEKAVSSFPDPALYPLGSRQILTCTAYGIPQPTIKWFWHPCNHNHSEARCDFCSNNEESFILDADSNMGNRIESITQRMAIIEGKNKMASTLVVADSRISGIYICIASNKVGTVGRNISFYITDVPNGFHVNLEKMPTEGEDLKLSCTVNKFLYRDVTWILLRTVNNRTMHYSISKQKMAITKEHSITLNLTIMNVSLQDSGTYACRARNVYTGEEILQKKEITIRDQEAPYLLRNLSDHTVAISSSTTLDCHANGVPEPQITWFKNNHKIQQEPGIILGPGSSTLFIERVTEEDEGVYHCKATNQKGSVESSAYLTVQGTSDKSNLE

Molecule | Kd [1] [nM] | koff [1] [s⁻¹] | kon [1] [M⁻¹ s⁻¹] | response of Ba/F3-NYK-EpoR cells to VEGF-D?N?C (3H-thymidine incorporation) [2] [µg/mL] | binding result [3]
monoclonal antibody 4E10 | 57.1 | 0.00445 | 78000 | 80 | 
B1 |  |  |  |  | no binding (tested: 7.3 µg/ml VEGF-DΔNΔC)
